Laboratory results as given in patent US20060024793A1.

The substances below were run against thrombin (manufactured by Enzyme Research Laboratories) (assay: cell-based or functional assay).

Row | Substance | Secondary rate constant (+hep), thrombin inhibition in the presence of heparin | Secondary rate constant (-hep), thrombin inhibition in the absence of heparin
1 | ATIII MS705 peak (3) fraction (recombinant human antithrombin III produced by pKAN-ATIII AFMS705, FUT8 gene-double-knockout CHO/DG44 cell) (from UniProt P01008 33-464) | 2.6e+07 M⁻¹ s⁻¹ | 8800 M⁻¹ s⁻¹
2 | ATIII MS705 peak (2) fraction (recombinant human antithrombin III produced by pKAN-ATIII AFMS705, FUT8 gene-double-knockout CHO/DG44 cell) (from UniProt P01008 33-464) | 2.5e+07 M⁻¹ s⁻¹ | 
3 | ATIII DG44 peak (1) fraction (recombinant human antithrombin III produced by pKAN-ATIII AFDG44, CHO/DG44 cell) (from UniProt P01008 33-464) | 8.7e+06 M⁻¹ s⁻¹ | 7700 M⁻¹ s⁻¹

Further lines, results first:

Row | Secondary rate constant (+hep), thrombin inhibition in the presence of heparin | Secondary rate constant (-hep), thrombin inhibition in the absence of heparin | Substance
4 | 2.3e+07 M⁻¹ s⁻¹ | 8200 M⁻¹ s⁻¹ | Neuart (human plasma-derived antithrombin III preparation, manufactured by Mitsubishi Pharma Corporation) (from UniProt P01008 33-464)
5 | 2e+07 M⁻¹ s⁻¹ | 8600 M⁻¹ s⁻¹ | ATIII DG44 peak (2) fraction (recombinant human antithrombin III produced by pKAN-ATIII AFDG44, CHO/DG44 cell) (from UniProt P01008 33-464)
